Experimental data as given in doi:10.1101/2020.05.22.111005 (bioRxiv, 2020).

How the values were obtained:
[1] = target: SARS-CoV-2 S receptor-binding domain (SRBD), monomeric, wild type (SARS-CoV-2, Wuhan-Hu-1 reference spike, UniProt P0DTC2); assay: BLI
[2] = target: T1, prefusion-stabilized trimeric SARS-CoV-2 S protein ectodomain (S2Pecto) (SARS-CoV-2, Wuhan-Hu-1 reference spike, UniProt P0DTC2, stabilised); assay: ELISA
[3] = target: T1, prefusion-stabilized trimeric …; assay: negative-stain electron microscopy

B1: COV2-2196 (human mAb) (antibody, V domains shown)
VH: QMQLVQSGPEVKKPGTSVKVSCKASGFTFMSSAVQWVRQARGQRLEWIGWIVIGSGNTNYAQKFQERVTITRDMSTSTAYMELSSLRSEDTAVYYCAAPYCSSISCNDGFDIWGQGTMVTVSS
VL: not shown
B1: binds [1]; binds [2].

B2: COV2-2165 (human mAb) (antibody, V domains shown)
VH: EVQLVESGGGLVQPGGSLRLSCAASGLTVRSNYMTWVRQTPGKGLEWVSVIYSGGSTFYADSVKGRFTISRDNSKNTVYLQMNSLRAEDTAVYYCARDLVTYGLDVWGQGTTVTVSS
VL: DIQLTQSPSFLSASVGDRVTITCRASQGISNYLAWYQQKPGTAPNLLIYAASTLQSGVPSRFSGSGSGTEFTLTISSLQPEDFATYYCQLLNSHPLTFGQGTRLEIK
B2: binds [1].

B3: Fab COV2-2196 (Fab, V domains shown)
VH: QMQLVQSGPEVKKPGTSVKVSCKASGFTFMSSAVQWVRQARGQRLEWIGWIVIGSGNTNYAQKFQERVTITRDMSTSTAYMELSSLRSEDTAVYYCAAPYCSSISCNDGFDIWGQGTMVTVSS
VL: not shown
B3: binds [3].

B4: Fab COV2-2165 (Fab, V domains shown)
VH: EVQLVESGGGLVQPGGSLRLSCAASGLTVRSNYMTWVRQTPGKGLEWVSVIYSGGSTFYADSVKGRFTISRDNSKNTVYLQMNSLRAEDTAVYYCARDLVTYGLDVWGQGTTVTVSS
VL: DIQLTQSPSFLSASVGDRVTITCRASQGISNYLAWYQQKPGTAPNLLIYAASTLQSGVPSRFSGSGSGTEFTLTISSLQPEDFATYYCQLLNSHPLTFGQGTRLEIK
B4: binds [3].
